In US12385055B2, “Compositions and methods for production of salidroside, icariside D2, and precursors of salidroside and icariside D2” (Whitehead Institute for Biomedical Research, priority 2017, dated 2025):

Columns and labels:
tyrosol = assay: In vivo tyrosol glycosylation assay in yeast expressing Rr4HPAAS; format: cell-based; settings: UGT on 2-micron TEF-promoter plasmid in S. cerevisiae BY4743 expressing Rr4HPAAS
Description: To facilitate functional assessment of a large number of UGT candidates, an in vivo tyrosol glycosylation assay in the yeast S. cerevisiae was devised. Initial iterations of the tyrosol-producing yeast strains were generated by transforming wild type S. cerevisiae BY4743 with separate 2-micron TEF-promoter expression plasmids containing Rr4HPAAS and Rr4HPAR1, respectively. It was later observed that yeast contains endogenous ADH activity sufficient to reduce 4-hydroxyphenylacetaladehyde produced by Rr4HPAAS to tyrosol. Therefore, the Rr4HPAR1-containing plasmid was omitted in the final tyrosol-producing strain (FIG. 18). Each of the 34 R. rosea UGT candidate genes, carried on the yeast 2-micron TEF-promoter expression plasmids, was transformed into the background strain expressing Rr4HPAAS. After auxotrophic selection, colonies were cultured, harvested and subjected to metabolic profiling by LC-HRAM-MS. […] The UGTs that contain T4GT activity appear to be phylogenetically diverse with representative enzymes falling into the D, G, E and K groups, while all of identified T8GTs cluster within the G group (FIG. 4A).
Crown tissue and root tissue of a three-month-old R. rosea plant was harvested and stored at −80° C. before subsequent metabolomic analysis. Various transgene-carrying S. cerevisiae BY4743 strains and transiently transformed N. benthamiana plants were generated to test the activity of candidate genes involved in the tyrosol glycoside biosynthesis. 3 mL of saturated S. cerevisiae culture was used to inoculate 50 mL of synthetic minimal media (SD) in a shake flask. After 24 hours of shaking at 30° C., the culture was pelleted by centrifugation, washed with water, and stored at −80° C. before further processing. N. benthamiana leaf tissue was harvested 5 days after Agrobacterium infiltration and was stored at −80° C. before further processing. Frozen yeast or plant tissue was disrupted with a TissueLyser (Qiagen) using acid-washed metal beads in 50% methanol (500 μL per 100 mg fresh weight). The extracts were then analyzed by LC-HRAM-MS. Metabolite profiling was conducted on a QExactive benchtop orbitrap mass spectrometer equipped with an Ion Max source and a HESI II probe, which was coupled to a Dionex UltiMate 3000 UPLC system (Thermo Fisher Scientific). 2 μL of each sample was injected onto a 150×2.1 mm ZIC-pHILIC column (5 μm particle size, EMD Millipore). Solvent A was 20 mM ammonium carbonate, 0.1% ammonium hydroxide; solvent B was acetonitrile. The column oven and autosampler tray were held at 25° C. and 4° C., respectively. The chromatographic gradient was run at a flow rate of 0.15 mL/min as follows: 0-20 min, linear gradient from 80% to 20% solvent B; 20-20.5 min, linear gradient from 20% to 80% solvent B; 20.5-28 min, hold at 80% solvent B. The mass spectrometer was operated in full-scan, polarity-switching mode with the spray voltage set to 3.0 kV, the heated capillary held at 275° C., and the HESI probe held at 350° C. The sheath gas flow was set to 40 units, the auxiliary gas flow was set to 15 units, and the sweep gas flow was set to 1 unit. The MS data acquisition was performed in a range of 70-1000 m/z, with the resolution set at 70,000, the AGC target at 10 e6, and the maximum injection time at 20 msec. The raw data was converted to mzML format using MSConvert (Chambers et al., 2012), and analyzed using MetaboAnalyst (Xia and Wishart, 2016) and MZmine2 (Pluskal et al., 2010).

[1] = substrate: OCCc1ccc(O)cc1; assay: Michaelis-Menten kinetics of RrT4GT (RrUGT3), tyrosol 4-O-glucosylation; format: biochemical, Rhodiola rosea; settings: other: substrate tyrosol (0.01-5.0 mM), 10 mM UDP-glucose, pH 8.0, 30° C., 10 min
Method: Kinetic characterization of UGTs was conducted in 200 μL reaction buffer (50 mM Tris, pH 8.0) containing 10 mM UDP-glucose and various concentrations of tyrosol (0.01-5.0 mM). Reactions were started with addition of recombinant enzyme, incubated at 30° C. for 10 minutes, and quenched by addition of 200 μL of methanol. The reaction mixed was then analyzed by LC-HRAR-MS as described above. Compounds were separated by reversed-phase chromatography with a ramp gradient of solvent A (0.1% formic acid in H2O) and solvent B (0.1% formic acid in acetonitrile): 5% solvent B for 0.5 min, 5-55% solvent B over 6 min, 55-5% solvent B over 1.0 min and a final equilibration of 5% solvent B for 1 min with a flow rate at 0.6 mL/min. Product formation was measured using select ion monitoring in positive mode for a centroid center mass of 318.15. Product mass was calculated by comparison to a standard curve of the NMR verified plant purified salidroside and icariside D2 samples.
Kinetic constants such as Km and Vmax were determined by fitting raw data to the Michaelis-Menten equation using the nonlinear regression function in Prism (version 7.0).

B1: RrUGT32: R. rosea UGT with regio-specific T8GT activity (protein, listed as Rhodiola rosea)
chain: MGSLGKKIQQKPHAICTPYPAQGHINPMLKLAKLLHHSGFYITFVHTTYNYNRLLKTHGSDSLSGLPDFQFETIPDGLPPSDAADVTQDIPALCKSTTETCLVPFKELLAKLHNKSMASPEEVPPVTCIVSDGCMSFTVDAAEEAGVPNVLLWTTSACGFLGYANYPKLIDRGIIPLKDESYFTNGYLDKTVDGIPGMKGIRLRDFPNFVCTTNPDEFMVKYAIQEITRAARADAVILNTFDALEHDFLDGLSNIYPKVLPIGPLQLPLNQIPESSPLHSICSSLWKDEPQCITWLNSQKPKSVVYVNYGSITVMTPQQMVEFAWGLANTKYPFLWIIRPDLVAGETAVLPPDFLEVTKGRSCLASWCPQEQVLSHTSIGGFLTHCGWNSMLESVVEGVPMVCWPFFAEQQTNCWAARTKWGIGMEIDNDVKRDKVQKMVTELMEGEKGKEMKRKGGEWKKLGAEAAGPNGSATLNFSRLINDVLLSKKKL
tyrosol
  tyrosol glycosylation activity (T8GT / T4GT): regio-specific T8GT activity

B2: RrUGT13: R. rosea UGT with regio-specific T4GT activity (protein, listed as Rhodiola rosea)
chain: MAEISLIFIPFPVISHLTPTIEIAKILLSRDHRLSITFLVIDIPQRDASLASLTTSIISDRLHFLDVVLPPNQHSQSSKPSGIAAIESAKPAVKKTISDLVVRSQSAASGPRIAGFVLDMFCTAMIDIATEFNLPSYIYYTCGSSFLSIVLHVQKLCDDDALDIADFKNSSVEFSLPEFSNLIPARLLPSMALDKDFSASFVGKARAFRKTKGILVNSLVELEPHAIESMKLDRSVPPIYSVGPVLNMNSNTAFIRQEQEKEIMEWLDQQPPASVVFLCFGSRGAFKPDQVKEIARGLESSGCRFLWALRQPSSSNVRFSPPTDYEDFSEVLPEGFLQRTYGVGKVIGWAPQTAVLDHPSVGGFVSHCGWNSILESLWFGVPIATWPLYAEQQMNAFEVVKEMKIGVEISLDYRLEMGGKQAEGSGIISGEQIERGIRDVMQEDSEVRKKVKLMMEKSREAVVEGGSSYNYIQNFISDLRTNIGL
tyrosol
  tyrosol glycosylation activity (T8GT / T4GT): regio-specific T4GT activity

B3: RrUGT2: R. rosea UGT with regio-specific T4GT activity, icariside D2-producing (protein, listed as Rhodiola rosea)
chain: MGSDSRPLRVFFFPFMAHGHLIPMVDIARLFSSQGVHSTIITTPLNANYISKTTSLSIKTIPFPAAEVGLPDGCENIDMLPSPDLFFKFFQAANLLQAPFENLLELERPDCLISDIFFPWSVDSAEKFNIPRLVFHGTSFFAMCAMESLKTHKPYKSVSTDSEPFLIPNLPDEIKMTKSQFTVDAWEDTEKGLGKLLADARASGLRSFGMIVNSFHELEPAYADYYKNVLNMKAWCVGPVSLYNRNDDEKIARGKKSAIDDHECLKWLEGKQPDSVVYVCFGSSASFPDEQLRDIALGLEESGVNFIWVIRRSSESGSEDYLPEGFEDRVKDRGLVIRGWAPQVLILDHPSVGGFVTHCGWNSALEGISAGLPMVTWPLFAEQFFNQKLITDVLKVGVEVGVQKWSRNGEDRVTKEKVEKAVRAVMVGEDAEERRGRARQLGKLAKKAVAKDGSSYIDLHNLLDELKLRRETLS
tyrosol
  tyrosol glycosylation activity (T8GT / T4GT): regio-specific T4GT activity

B4: RrUGT17: R. rosea UGT with both T8GT and T4GT activities (protein, listed as Rhodiola rosea)
chain: MGSLPSTKSHAVLVPYPAQGHINPFMQLAKLLHSKGFHITFVNNDHNHRRLLRTKGHDFVQGLEGLRFEAVPDGLPPSDRDATQDVPKLTESIYNKSMNQPFSDLLQRLNSTPGSPPVTCVISDVAMFFAWDVADELGIPNVQFWTASACGLLGYLQYDELLRRAIVPFKDENFMTDGSLEALIDWIPGMPNMRLKDLPSFMRTTSPDDVLFNYLRTITTKALKSSALLLNTFDDFEHEVVEEMKKMQPNIFLGGPLNMLLRHTSKTEITSLTTSLWKEDTHCLEWLDKQEPESVVYINYGSVTIMSDHHLNEFAWGLANSKHPFLWIVRPDVVRGESGTLPKEFYDEIKDRGLITSWCPQPEVLKHPSVGVYLTHCGWNSITESVAGGVPLMCWPFFAEQQTNSRFACTVWGTGVEVNADVKREELAEQVMEMLEGKRGQELRKNAKEWRRKAEEATDIGGSAYADFDRFMEKVVQFSV
tyrosol
  tyrosol glycosylation activity (T8GT / T4GT): both T8GT and T4GT activities

B5: RrUGT7: R. rosea UGT with regio-specific T4GT activity (protein, listed as Rhodiola rosea)
chain: MAENTHAHAIVVPFPVQGHIKPSLNLALKLASQGFTITFVTTHFTHQQISQAHKNSTNTNHDMFFQARNSSLDIRHVTVTDTFPLGFDRAGNQDQFWEGMLHVFPAHVDELVDQLMNSSKPRPTCLILDTFYNWGSKIANKFNLVHISFWTQSALSFTLFYHWELLKKNGHFGSPDNRTDVIDYIPGVQEIKPADLISYLQMSDTTTVAHRTCFTAFEDVRKADFILANTIQEFETDTISSIRFHQPFFYPIGPVFLTKSEQQASSALWSESDCEQWLSTKPKGSVLYASFGSYARVTRHDIAEIAYGLMQSEVNFIWVIRDDIVGAHETDFLPTEFINGIKLKDQGLLVSWCSQTEVLSNAAIGGFLTHCGWNSILESVWCEVPLLCFPIMTDQPSNRKLVVDDWRIGVNLSAAEEVSREEVSMKVRNLISGELGNELRVQIQKYKKLMENGIMEGGSSHSNWNKFIHDLQIFKK
tyrosol
  tyrosol glycosylation activity (T8GT / T4GT): regio-specific T4GT activity

B6: RrUGT29: R. rosea UGT with regio-specific T8GT activity, salidroside-producing (protein, listed as Rhodiola rosea)
chain: MGSLGKKIQQKPHAICTPYPAQGHINPMLKLAKLLHHSGFYITFVHTTYNYNRLLKTHGSDSLSGLPDFQFETIPDGLPPSDAADVTQDIPALCKSTTETCLVPFKELLAKLHNKSMASPEEVPPVTCIVSDGCMSFTVDAAEEAGVPNVLLWTTSACGFLGYANYPKLIDRGIIPLKDESYFTNGYLDKTVDGIPGMKGIRLRDFPNFVCTTNPDEFMVKYAIQEITRAARADAVILNTFDALEHDFLDGLSNIYPKVLPIGPLQLPLNQIPESSPLHSICSSLWKDEPQCITWLNSQKPKSVVYVNYGSITVMTPQQMVEFAWGLANTKYPFLWIIRPDLVAGETAVLPPDFLEVTKGRSCLASWCPQEQVLSHTSIGGFLTHCGWNSMLESVVEGVPMVCWPFFAEQQTNCWAARTKWGIGMEIDNDVKRDKVQKMVTELMEGEKGKEMKRKGGEWKKLGAEAAGPNGSATLNFSRLINDVLLSKKKIVVTT
tyrosol
  tyrosol glycosylation activity (T8GT / T4GT): regio-specific T8GT activity

B7: Rhodiola rosea RrT4GT (RrUGT3), tyrosol:UDP-glucose 4-O-glucosyltransferase, SEQ ID NO: 8 (Rhodiola rosea) (protein)
chain: MSGTPHIAILPSPGMGHLIPMAEFAKRLVHHHNFSITFVIPTDGPPSSAYQQVLTSLPSSIDHIFLPQVDLTDVVSQSPAHPRIETLISLTVARSLSSLRTTLSSLQSSKNLVSLVVDLFGTDAFDPAIELGISPYIFFPSTAMTLSLFLYMPQLDKSVTCEFRHMTDLVRIPGCVPVRGSDLFDPVQDRTDEAYKWVIHHSNRYPMAEGVIENSFMELEHGALKYLQTVQSGKPPVYAVGPLIKMDYDVDDSGSKIIEWLDDQPVGSVLFVSFGSGGTLSYEQMTELAHGLESSQQRFLWVVRSPNQIPNSTYFSVQSQKDPLAYLPEGFLNRTEGRGLVVSNWAPQAQILSHGSTGGFMSHCGWNSILESVVHGVPIIAWPLYAEQKMNSIIVVEDVKVALRPAGVGERVVERSEITAVVKALMEGEEGKKVRNRMKELKEAAARAVSDDGASTIAIADLAQKWRSSMKH
[1]
  Km: 4.11 ± 0.08 mM
  kcat: 481.6 ± 3.91 s⁻¹
  kcat/Km: 117000 M⁻¹ s⁻¹
